Test results as given in IntAct's records for PubMed 31515488.

B1: Alpha-taxilin (Homo sapiens), P40222 (parent)
chain: MKNQDKKNGAAKQSNPKSSPGQPEAGPEGAQERPSQAAPAVEAEGPGSSQAPRKPEGAQARTAQSGALRDVSEELSRQLEDILSTYCVDNNQGGPGEDGAQGEPAEPEDAEKSRTYVARNGEPEPTPVVNGEKEPSKGDPNTEEIRQSDEVGDRDHRRPQEKKKAKGLGKEITLLMQTLNTLSTPEEKLAALCKKYAELLEEHRNSQKQMKLLQKKQSQLVQEKDHLRGEHSKAVLARSKLESLCRELQRHNRSLKEEGVQRAREEEEKRKEVTSHFQVTLNDIQLQMEQHNERNSKLRQENMELAERLKKLIEQYELREEHIDKVFKHKDLQQQLVDAKLQQAQEMLKEAEERHQREKDFLLKEAVESQRMCELMKQQETHLKQQLALYTEKFEEFQNTLSKSSEVFTTFKQEMEKMTKKIKKLEKETTMYRSRWESSNKALLEMAEEKTVRDKELEGLQVKIQRLEKLCRALQTERNDLNKRVQDLSAGGQGSLTDSGPERRPEGPGAQAPSSPRVTEAPCYPGAPSTEASGQTGPQEPTSARA
B2: Tektin-4 (Homo sapiens), Q8WW24 (parent)
chain: MAQTVPPCELPCKEYDVARNTGAYTSSGLATASFRTSKYLLEEWFQNCYARYHQAFADRDQSERQRHESQQLATETQALAQRTQQDSTRTVGERLQDTHSWKSELQREMEALAAETNLLLAQKQRLERALDATEVPFSITTDNLQCRERREHPNLVRDHVETELLKEAELIRNIQELLKRTIMQAVSQIRLNREHKETCEMDWSDKMEAYNIDETCGRHHSQSTEVQAHPYSTTFQESASTPETRAKFTQDNLCRAQRERLASANLRVLVDCILRDTSEDLRLQCDAVNLAFGRRCEELEDARYKLHHHLHKTLREITDQEHNVAALKQAIKDKEAPLHVAQTRLYLRSHRPNMELCRDAAQFRLLSEVEELNMSLTALREKLLEAEQSLRNLEDIHMSLEKDIAAMTNSLFIDRQKCMAHRTRYPTILQLAGYQ
partner: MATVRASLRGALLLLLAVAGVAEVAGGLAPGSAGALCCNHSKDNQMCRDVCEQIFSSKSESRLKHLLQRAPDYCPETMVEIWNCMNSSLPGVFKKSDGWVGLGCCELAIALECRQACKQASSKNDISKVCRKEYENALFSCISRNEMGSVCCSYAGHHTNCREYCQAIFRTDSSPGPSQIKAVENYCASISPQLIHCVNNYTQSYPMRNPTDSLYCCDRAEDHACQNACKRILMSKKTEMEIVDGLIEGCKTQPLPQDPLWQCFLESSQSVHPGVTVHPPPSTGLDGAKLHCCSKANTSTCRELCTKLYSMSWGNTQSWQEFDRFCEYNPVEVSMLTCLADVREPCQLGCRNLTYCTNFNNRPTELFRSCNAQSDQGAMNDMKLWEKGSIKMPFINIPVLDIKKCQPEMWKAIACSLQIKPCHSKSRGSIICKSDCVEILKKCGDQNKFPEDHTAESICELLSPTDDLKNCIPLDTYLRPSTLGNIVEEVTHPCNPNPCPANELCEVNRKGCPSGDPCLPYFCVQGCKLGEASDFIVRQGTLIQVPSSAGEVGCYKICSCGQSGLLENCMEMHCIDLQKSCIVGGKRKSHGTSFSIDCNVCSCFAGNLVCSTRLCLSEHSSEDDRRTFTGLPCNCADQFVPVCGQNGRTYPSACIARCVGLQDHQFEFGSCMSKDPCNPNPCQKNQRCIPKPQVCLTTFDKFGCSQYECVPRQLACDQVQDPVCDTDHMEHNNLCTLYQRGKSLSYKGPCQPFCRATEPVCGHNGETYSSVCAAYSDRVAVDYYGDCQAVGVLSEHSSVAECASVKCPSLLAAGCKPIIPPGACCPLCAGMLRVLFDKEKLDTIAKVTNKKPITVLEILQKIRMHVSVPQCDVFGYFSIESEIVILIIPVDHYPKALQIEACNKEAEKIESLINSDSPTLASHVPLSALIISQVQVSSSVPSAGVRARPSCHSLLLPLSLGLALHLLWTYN
B3: Farnesyl pyrophosphate synthase (Homo sapiens), P14324 (parent)
chain: MPLSRWLRSVGVFLLPAPYWAPRERWLGSLRRPSLVHGYPVLAWHSARCWCQAWTEEPRALCSSLRMNGDQNSDVYAQEKQDFVQHFSQIVRVLTEDEMGHPEIGDAIARLKEVLEYNAIGGKYNRGLTVVVAFRELVEPRKQDADSLQRAWTVGWCVELLQAFFLVADDIMDSSLTRRGQICWYQKPGVGLDAINDANLLEACIYRLLKLYCREQPYYLNLIELFLQSSYQTEIGQTLDLLTAPQGNVDLVRFTEKRYKSIVKYKTAFYSFYLPIAAAMYMAGIDGEKEHANAKKILLEMGEFFQIQDDYLDLFGDPSVTGKIGTDIQDNKCSWLVVQCLQRATPEQYQILKENYGQKEAEKVARVKALYEELDLPAVFLQYEEDSYSHIMALIEQYAAPLPPAVFLGLARKIYKRRK
partner: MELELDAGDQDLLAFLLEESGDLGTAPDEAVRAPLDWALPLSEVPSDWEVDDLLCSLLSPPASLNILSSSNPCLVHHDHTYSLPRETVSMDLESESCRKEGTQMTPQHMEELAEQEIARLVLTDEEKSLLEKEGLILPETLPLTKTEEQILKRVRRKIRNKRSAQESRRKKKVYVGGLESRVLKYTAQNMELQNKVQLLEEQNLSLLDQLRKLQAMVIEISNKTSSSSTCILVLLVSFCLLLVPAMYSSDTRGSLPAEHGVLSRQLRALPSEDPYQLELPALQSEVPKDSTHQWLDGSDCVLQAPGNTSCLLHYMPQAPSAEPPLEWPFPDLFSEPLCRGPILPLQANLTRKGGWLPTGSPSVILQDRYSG
B4: Carboxy-terminal domain RNA polymerase II polypeptide A small phosphatase 1 (Homo sapiens), Q9GZU7 (parent)
chain: MDSSAVITQISKEEARGPLRGKGDQKSAASQKPRSRGILHSLFCCVCRDDGEALPAHSGAPLLVEENGAIPKQTPVQYLLPEAKAQDSDKICVVIDLDETLVHSSFKPVNNADFIIPVEIDGVVHQVYVLKRPHVDEFLQRMGELFECVLFTASLAKYADPVADLLDKWGAFRARLFRESCVFHRGNYVKDLSRLGRDLRRVLILDNSPASYVFHPDNAVPVASWFDNMSDTELHDLLPFFEQLSRVDDVYSVLRQPRPGS
partner: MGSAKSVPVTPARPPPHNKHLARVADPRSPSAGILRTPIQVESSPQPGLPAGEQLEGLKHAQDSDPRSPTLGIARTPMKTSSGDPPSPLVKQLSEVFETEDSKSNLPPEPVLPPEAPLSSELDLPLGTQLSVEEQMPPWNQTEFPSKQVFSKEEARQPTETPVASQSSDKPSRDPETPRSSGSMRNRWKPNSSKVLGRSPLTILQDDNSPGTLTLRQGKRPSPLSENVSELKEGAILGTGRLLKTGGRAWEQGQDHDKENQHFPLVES
B5: Probable splicing factor YJU2B (Homo sapiens), P13994 (parent)
chain: MGERKGVNKYYPPDFNPEKHGSLNRYHNSHPLRERARKLSQGILIIRFEMPYNIWCDGCKNHIGMGVRYNAEKKKVGNYYTTPIYRFRMKCHLCVNYIEMQTDPANCDYVIVSGAQRKEERWDMADNEQVLTTEHEKKQKLETDAMFRLEHGEADRSTLKKALPTLSHIQEAQSAWKDDFALNSMLRRRFREKKKAIQEEEERDQALQAKASLTIPLVPETEDDRKLAALLKFHTLDSYEDKQKLKRTEIISRSWFPSAPGSASSSKVSGVLKKLAQSRRTALATSPITVGDLGIVRRRSRDVPESPQHAADTPKSGEPRVPEEAAQDRPMSPGDCPPETTETPKCSSPRGQEGSRQDKPLSPAGSSQEAADTPDTRHPCSLGSSLVADYSDSESE
B6: Protein LDOC1 (Homo sapiens), O95751 (parent)
chain: MVDELVLLLHALLMRHRALSIENSQLMEQLRLLVCERASLLRQVRPPSCPVPFPETFNGESSRLPEFIVQTASYMLVNENRFCNDAMKVAFLISLLTGEAEEWVVPYIEMDSPILGDYRAFLDEMKQCFGWDDDEDDDDEEEEDDY
partner: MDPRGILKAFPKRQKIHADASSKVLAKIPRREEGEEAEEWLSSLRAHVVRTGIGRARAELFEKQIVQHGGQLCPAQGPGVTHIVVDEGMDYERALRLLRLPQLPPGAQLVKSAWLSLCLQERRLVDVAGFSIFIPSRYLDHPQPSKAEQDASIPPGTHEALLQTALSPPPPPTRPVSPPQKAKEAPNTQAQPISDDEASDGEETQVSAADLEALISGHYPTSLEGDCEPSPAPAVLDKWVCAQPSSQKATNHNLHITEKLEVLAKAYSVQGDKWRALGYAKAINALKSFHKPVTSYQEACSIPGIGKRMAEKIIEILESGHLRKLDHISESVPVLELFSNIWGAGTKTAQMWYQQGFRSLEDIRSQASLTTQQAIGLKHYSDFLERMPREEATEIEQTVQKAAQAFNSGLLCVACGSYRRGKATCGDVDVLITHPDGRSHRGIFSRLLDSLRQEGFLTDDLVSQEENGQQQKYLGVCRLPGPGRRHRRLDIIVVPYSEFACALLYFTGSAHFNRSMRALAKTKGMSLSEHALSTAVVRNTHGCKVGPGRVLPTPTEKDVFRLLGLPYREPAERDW
B7: Asparagine synthetase [glutamine-hydrolyzing] (Homo sapiens), P08243 (parent)
chain: MCGIWALFGSDDCLSVQCLSAMKIAHRGPDAFRFENVNGYTNCCFGFHRLAVVDPLFGMQPIRVKKYPYLWLCYNGEIYNHKKMQQHFEFEYQTKVDGEIILHLYDKGGIEQTICMLDGVFAFVLLDTANKKVFLGRDTYGVRPLFKAMTEDGFLAVCSEAKGLVTLKHSATPFLKVEPFLPGHYEVLDLKPNGKVASVEMVKYHHCRDVPLHALYDNVEKLFPGFEIETVKNNLRILFNNAVKKRLMTDRRIGCLLSGGLDSSLVAATLLKQLKEAQVQYPLQTFAIGMEDSPDLLAARKVADHIGSEHYEVLFNSEEGIQALDEVIFSLETYDITTVRASVGMYLISKYIRKNTDSVVIFSGEGSDELTQGYIYFHKAPSPEKAEEESERLLRELYLFDVLRADRTTAAHGLELRVPFLDHRFSSYYLSLPPEMRIPKNGIEKHLLRETFEDSNLIPKEILWRPKEAFSDGITSVKNSWFKILQEYVEHQVDDAMMANAAQKFPFNTPKTKEGYYYRQVFERHYPGRADWLSHYWMPKWINATDPSARTLTHYKSAVKA
partner: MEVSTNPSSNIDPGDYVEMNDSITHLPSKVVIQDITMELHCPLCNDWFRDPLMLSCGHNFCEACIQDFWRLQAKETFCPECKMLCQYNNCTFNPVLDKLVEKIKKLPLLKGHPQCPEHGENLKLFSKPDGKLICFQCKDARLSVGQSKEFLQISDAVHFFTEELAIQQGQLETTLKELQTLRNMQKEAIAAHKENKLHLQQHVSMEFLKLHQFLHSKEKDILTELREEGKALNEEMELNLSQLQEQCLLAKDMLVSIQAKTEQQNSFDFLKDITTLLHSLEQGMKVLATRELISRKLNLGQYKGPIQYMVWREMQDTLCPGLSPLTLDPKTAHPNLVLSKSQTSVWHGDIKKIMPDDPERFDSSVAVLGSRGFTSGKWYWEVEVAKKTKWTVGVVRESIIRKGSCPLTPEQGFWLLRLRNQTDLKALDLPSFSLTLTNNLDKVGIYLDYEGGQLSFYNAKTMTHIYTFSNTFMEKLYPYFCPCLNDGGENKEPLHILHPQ

Variants of: B1
Conditions: with cc136_human CCDC136, Q96JN2
Sequence of cc136_human CCDC136, Q96JN2 (Q96JN2 whole entry): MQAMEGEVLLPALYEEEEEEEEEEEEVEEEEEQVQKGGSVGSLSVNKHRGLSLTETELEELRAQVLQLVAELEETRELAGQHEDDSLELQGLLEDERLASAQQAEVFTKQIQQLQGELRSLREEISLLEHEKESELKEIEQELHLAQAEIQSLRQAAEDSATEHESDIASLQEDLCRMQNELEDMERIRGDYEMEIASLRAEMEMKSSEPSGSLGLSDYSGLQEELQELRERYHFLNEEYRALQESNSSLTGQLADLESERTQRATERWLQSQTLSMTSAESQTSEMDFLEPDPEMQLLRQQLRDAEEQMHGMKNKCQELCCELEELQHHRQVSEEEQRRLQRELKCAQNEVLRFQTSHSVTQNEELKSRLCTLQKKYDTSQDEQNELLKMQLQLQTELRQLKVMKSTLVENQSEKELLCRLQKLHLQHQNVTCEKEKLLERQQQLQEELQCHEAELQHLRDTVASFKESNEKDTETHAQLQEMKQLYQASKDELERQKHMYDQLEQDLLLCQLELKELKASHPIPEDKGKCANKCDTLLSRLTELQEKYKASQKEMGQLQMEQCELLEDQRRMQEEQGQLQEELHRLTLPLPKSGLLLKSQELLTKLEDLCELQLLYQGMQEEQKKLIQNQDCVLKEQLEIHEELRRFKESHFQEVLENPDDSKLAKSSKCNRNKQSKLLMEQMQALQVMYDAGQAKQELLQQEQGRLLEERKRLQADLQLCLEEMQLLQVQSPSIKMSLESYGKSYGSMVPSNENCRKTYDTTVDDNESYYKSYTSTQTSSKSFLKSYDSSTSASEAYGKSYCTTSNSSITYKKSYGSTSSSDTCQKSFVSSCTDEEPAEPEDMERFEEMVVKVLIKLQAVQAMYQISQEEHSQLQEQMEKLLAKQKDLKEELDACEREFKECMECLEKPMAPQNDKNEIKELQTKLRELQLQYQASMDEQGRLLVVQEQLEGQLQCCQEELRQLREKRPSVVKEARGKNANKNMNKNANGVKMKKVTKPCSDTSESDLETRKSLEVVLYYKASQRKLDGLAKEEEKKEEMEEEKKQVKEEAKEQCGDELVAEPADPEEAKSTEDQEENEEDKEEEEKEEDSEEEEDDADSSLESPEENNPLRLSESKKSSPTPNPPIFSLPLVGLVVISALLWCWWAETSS

effect of a mutation on the interaction	Variant
with no effect	S514R
with no effect	P541S

Variants of: B1
Conditions: with tfp11_human TFIP11, Q9UBB9
Sequence of tfp11_human TFIP11, Q9UBB9 (Q9UBB9 whole entry): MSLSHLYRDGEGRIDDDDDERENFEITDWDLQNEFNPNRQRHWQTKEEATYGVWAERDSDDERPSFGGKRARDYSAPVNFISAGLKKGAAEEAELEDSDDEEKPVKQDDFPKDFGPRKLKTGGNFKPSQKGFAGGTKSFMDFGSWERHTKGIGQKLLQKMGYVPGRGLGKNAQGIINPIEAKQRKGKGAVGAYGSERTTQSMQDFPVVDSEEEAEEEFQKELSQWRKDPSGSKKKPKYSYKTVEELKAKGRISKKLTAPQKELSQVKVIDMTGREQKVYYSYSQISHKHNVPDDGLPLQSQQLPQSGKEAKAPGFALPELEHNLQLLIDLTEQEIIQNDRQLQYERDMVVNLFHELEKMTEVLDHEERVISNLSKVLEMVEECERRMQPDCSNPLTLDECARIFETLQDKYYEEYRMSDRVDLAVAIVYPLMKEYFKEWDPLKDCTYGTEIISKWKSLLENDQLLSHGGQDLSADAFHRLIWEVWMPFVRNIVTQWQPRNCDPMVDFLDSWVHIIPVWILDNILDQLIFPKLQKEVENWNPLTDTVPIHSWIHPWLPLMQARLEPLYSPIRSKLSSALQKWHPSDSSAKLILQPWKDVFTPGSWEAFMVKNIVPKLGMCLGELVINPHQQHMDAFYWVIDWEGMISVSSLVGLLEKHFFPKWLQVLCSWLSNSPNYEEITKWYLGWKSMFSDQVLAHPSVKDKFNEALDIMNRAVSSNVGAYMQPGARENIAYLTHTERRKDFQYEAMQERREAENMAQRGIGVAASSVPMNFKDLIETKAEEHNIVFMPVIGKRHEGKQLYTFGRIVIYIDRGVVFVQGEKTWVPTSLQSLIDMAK

effect of a mutation on the interaction	Variant
with no effect	S514R
with no effect	P541S
disrupting interaction strength	R154G

Variants of: B1
Conditions: with ndc80_human NDC80, O14777
Sequence of ndc80_human NDC80, O14777 (O14777 whole entry): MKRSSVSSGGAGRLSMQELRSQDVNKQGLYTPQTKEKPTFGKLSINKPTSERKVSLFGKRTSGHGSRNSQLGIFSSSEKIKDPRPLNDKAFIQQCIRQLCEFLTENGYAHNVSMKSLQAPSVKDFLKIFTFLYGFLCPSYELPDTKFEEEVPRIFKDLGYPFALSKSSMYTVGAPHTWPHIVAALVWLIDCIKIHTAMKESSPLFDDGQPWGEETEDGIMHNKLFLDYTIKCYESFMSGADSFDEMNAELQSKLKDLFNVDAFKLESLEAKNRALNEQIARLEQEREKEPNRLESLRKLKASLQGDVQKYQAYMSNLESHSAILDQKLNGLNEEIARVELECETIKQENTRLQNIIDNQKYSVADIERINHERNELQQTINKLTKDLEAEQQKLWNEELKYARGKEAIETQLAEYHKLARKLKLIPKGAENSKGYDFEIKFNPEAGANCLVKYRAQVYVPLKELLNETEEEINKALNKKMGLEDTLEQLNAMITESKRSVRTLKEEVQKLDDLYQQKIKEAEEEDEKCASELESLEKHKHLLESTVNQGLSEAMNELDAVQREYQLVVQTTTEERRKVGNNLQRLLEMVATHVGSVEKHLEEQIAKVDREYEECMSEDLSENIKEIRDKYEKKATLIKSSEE

effect of a mutation on the interaction	Variant
with no effect	S514R
with no effect	P541S
disrupting interaction strength	R154G

Variants of: B1
Conditions: with cdr2_human CDR2, Q01850

effect of a mutation on the interaction	Variant
disrupting interaction strength	R154G

Variants of: B1
Conditions: with lipa1_human PPFIA1, Q13136
Sequence of lipa1_human PPFIA1, Q13136 (Q13136 whole entry): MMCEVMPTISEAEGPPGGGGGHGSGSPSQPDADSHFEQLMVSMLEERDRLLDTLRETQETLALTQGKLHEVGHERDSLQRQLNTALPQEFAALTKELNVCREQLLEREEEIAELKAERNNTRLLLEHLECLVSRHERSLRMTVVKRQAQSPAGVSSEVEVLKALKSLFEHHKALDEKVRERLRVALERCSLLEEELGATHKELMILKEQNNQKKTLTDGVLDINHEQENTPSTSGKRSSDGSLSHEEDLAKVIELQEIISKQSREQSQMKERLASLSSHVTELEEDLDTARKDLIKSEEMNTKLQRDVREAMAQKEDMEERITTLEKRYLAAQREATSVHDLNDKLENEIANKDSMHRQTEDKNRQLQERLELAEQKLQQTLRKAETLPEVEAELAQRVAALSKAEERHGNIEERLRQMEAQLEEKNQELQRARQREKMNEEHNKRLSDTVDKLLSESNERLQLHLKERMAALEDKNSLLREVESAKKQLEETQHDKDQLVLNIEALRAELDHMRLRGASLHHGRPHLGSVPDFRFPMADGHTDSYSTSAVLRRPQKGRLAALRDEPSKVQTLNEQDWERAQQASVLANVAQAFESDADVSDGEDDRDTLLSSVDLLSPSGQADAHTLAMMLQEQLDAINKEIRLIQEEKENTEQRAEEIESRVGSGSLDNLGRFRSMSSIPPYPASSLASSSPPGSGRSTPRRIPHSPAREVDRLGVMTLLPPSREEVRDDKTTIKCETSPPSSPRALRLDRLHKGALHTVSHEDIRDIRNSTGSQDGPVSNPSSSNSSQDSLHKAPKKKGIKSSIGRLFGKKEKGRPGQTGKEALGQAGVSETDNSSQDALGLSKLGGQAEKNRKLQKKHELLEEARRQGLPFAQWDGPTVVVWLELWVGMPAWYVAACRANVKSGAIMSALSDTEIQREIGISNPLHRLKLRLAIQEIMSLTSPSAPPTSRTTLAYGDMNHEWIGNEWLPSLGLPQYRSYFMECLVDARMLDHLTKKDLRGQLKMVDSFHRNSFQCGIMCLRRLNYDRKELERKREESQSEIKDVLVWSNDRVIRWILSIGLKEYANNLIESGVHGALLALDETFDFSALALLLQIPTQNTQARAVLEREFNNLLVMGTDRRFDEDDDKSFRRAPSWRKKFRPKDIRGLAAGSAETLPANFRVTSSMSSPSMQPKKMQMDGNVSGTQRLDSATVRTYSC

effect of a mutation on the interaction	Variant
with no effect	R154G

Variants of: B2
Conditions: with reck_human RECK

effect of a mutation on the interaction	Variant
with no effect	A80V
with no effect	R64W
with no effect	D403N
with no effect	C272S
with no effect	R82C
with no effect	R255C
with no effect	M374V
with no effect	M374T
disrupting interaction strength	I404T
with no effect	S100G

Variants of: B3
Conditions: with creb3_human CREB3, O43889

effect of a mutation on the interaction	Variant
with no effect	R150Q

Variants of: B4
Conditions: with cdca3_human CDCA3, Q99618

effect of a mutation on the interaction	Variant
with no effect	H57D
with no effect	A56T

Variants of: B5
Conditions: with znf24_human ZNF24, P17028
Sequence of znf24_human ZNF24, P17028 (P17028 whole entry): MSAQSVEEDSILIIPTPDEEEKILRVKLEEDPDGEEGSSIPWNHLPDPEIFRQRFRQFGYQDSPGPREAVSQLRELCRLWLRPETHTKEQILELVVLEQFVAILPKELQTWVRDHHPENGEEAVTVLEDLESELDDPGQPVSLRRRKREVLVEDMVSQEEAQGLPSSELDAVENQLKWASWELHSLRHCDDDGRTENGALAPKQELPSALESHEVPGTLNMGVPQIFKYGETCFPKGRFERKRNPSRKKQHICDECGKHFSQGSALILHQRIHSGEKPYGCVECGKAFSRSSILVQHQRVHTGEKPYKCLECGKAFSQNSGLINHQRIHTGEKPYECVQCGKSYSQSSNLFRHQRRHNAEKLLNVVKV

effect of a mutation on the interaction	Variant
with no effect	S22C

Variants of: B5
Conditions: with traf2_human TRAF2, Q12933
Sequence of traf2_human TRAF2, Q12933 (Q12933 whole entry): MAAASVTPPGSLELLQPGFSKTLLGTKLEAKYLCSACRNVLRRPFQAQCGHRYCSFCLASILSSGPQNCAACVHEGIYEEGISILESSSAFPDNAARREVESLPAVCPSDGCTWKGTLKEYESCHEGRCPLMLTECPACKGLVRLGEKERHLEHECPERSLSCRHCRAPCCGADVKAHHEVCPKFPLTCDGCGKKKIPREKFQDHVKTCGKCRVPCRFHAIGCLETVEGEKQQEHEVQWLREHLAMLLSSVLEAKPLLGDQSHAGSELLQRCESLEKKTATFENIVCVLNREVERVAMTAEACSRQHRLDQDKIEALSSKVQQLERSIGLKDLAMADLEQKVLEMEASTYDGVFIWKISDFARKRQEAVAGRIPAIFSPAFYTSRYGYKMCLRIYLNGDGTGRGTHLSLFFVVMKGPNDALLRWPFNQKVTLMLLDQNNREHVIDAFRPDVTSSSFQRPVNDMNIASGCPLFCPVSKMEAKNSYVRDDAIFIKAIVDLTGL

effect of a mutation on the interaction	Variant
with no effect	S22C

Variants of: B6
Conditions: with dpoll_human POLL

effect of a mutation on the interaction	Variant
disrupting interaction strength	L12H

Variants of: B7
Conditions: with tri69_human TRIM69, Q86WT6

effect of a mutation on the interaction	Variant
with no effect	A277T
